Target: the molecule itself
Assay: dynamic light scattering; self-assembly into nanospheres; 0.4 mg/mL, pH 8, 25 mM Tris buffer, 22°C; Rayleigh sphere model, sphere-equivalent hydrodynamic radii

B1: rp(H)M180, recombinant His-tagged mouse amelogenin M180 (natural protein, UniProt P63277-1 17-196, looked up)
chain: MPLPPHPGSPGYINLSYEVLTPLKWYQSMIRQPYPSYGYEPMGGWLHHQIIPVLSQQHPPSHTLQPHHHLPVVPAQQPVAPQQPMMPVPGHHSMTPTQHHQPNIPPSAQQPFQQPFQPQAIPPQSHQPMQPQSPLHPMQPLAPQPPLPPLFSMQPLSPILPELPLEAWPATDKTKREEVD
notes: Assembles into nanospheres at pH 8; also called wild type mouse amelogenin; mAmelx; source: E. coli (pQE30), purified (Ni-NTA); not shown: poly-histidine, N-terminal, kept
  binding result: binds

From article PMC3060920, “Structural Analysis of a Repetitive Protein Sequence Motif in Strepsirrhine Primate Amelogenin” (PLoS ONE, 2011)
